The results in this text go back to article PMC8876501, “Structural and Functional Insight into the Mechanism of Bacillus subtilis 6S-1 RNA Release from RNA Polymerase”.

Data set [1] deals with T1, native sigmaA-RNA polymerase holoenzyme (Bacillus subtilis, UniProt P20429;P37870;P37871;P06224 1-314;1-1193;1-1199;1-371). As to the kind of experiment: EMSA; 5 mM Mg2+, heparin 80 ng/uL; 40 mM Tris-HCl pH 8.0, 5 mM MgCl2, 160 mM KCl, 1 mM DTT, heparin 80 ng/uL, ~10 nM RNA, plus RNAP storage buffer; 30 min at 37 C; native 7.5% PAGE (10% for Fig 12). Particulars: protein: native, chain copies: 2;1;1;1, label: 5'-32P. (In EMSA bound probe runs differently from free probe, usually more slowly.)
T1 sequence (P20429 whole entry, chain 1 of 4): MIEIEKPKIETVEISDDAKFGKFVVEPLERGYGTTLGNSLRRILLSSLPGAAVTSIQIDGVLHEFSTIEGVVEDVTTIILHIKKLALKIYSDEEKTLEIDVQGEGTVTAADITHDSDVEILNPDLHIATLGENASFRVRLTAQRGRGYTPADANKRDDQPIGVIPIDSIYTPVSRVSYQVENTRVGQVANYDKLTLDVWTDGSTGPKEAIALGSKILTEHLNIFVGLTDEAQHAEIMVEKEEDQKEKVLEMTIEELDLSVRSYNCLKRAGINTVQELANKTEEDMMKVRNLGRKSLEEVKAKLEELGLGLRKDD
T1 sequence (P37870 whole entry, chain 2 of 4): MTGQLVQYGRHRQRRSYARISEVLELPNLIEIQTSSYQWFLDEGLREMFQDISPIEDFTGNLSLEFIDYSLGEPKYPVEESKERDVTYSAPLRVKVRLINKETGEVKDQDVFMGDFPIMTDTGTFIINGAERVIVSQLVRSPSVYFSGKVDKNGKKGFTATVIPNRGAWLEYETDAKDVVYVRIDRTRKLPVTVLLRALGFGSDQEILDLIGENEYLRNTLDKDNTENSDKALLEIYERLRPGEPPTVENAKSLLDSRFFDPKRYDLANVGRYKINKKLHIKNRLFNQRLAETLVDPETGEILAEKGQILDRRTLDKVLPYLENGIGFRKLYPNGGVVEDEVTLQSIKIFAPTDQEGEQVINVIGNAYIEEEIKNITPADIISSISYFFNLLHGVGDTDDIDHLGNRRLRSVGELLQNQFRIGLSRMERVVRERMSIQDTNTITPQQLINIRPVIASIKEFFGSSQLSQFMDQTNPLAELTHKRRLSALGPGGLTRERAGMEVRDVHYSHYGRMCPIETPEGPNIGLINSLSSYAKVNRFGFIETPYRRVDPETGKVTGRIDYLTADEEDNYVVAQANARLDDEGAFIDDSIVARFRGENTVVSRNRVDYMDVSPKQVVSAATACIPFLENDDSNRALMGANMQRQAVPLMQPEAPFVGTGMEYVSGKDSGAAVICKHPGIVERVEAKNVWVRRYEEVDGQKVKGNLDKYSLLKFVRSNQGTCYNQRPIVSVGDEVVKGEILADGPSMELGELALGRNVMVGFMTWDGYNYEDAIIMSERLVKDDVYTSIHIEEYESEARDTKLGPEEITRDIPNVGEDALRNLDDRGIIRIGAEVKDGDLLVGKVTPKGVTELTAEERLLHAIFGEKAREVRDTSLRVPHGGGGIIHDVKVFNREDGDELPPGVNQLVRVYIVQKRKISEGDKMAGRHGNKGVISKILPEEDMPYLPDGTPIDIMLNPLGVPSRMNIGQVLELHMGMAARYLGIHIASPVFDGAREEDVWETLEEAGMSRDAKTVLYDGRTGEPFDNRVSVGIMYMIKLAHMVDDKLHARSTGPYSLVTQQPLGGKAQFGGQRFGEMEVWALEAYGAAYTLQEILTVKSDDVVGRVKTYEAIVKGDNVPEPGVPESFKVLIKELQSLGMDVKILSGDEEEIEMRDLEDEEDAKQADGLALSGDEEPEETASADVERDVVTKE
T1 sequence (P37871 whole entry, chain 3 of 4): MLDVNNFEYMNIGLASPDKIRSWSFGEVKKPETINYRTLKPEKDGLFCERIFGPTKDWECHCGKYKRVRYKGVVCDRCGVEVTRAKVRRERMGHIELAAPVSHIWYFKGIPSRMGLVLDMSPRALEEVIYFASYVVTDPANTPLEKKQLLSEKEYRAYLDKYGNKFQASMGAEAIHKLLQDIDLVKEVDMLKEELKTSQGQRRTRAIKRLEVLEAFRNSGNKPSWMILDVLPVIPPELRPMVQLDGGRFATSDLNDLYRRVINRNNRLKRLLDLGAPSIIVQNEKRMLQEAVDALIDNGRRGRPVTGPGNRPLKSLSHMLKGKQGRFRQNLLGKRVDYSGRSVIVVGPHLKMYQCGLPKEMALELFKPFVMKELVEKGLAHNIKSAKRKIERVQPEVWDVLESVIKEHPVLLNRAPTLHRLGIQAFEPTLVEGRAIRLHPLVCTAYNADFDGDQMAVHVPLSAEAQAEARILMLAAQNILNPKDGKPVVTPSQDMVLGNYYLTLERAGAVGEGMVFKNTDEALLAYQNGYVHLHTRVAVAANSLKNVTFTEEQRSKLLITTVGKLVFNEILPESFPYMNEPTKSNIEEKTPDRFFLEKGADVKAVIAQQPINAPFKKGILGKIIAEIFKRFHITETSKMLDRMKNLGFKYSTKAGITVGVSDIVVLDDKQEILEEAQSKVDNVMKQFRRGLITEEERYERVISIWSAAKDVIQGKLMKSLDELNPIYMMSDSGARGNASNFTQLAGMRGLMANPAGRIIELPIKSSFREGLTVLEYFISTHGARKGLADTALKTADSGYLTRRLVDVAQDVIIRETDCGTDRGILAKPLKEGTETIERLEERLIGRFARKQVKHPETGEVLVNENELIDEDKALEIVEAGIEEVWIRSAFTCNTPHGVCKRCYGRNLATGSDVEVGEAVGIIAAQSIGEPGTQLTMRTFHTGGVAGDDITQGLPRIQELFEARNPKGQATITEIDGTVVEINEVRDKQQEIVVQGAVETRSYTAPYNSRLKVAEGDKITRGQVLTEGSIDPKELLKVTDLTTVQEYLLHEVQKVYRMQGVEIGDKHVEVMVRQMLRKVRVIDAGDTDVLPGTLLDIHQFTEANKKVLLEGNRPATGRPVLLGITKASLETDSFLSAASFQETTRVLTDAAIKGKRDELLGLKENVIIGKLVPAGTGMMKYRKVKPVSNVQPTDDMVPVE
T1 sequence (P06224 whole entry, chain 4 of 4): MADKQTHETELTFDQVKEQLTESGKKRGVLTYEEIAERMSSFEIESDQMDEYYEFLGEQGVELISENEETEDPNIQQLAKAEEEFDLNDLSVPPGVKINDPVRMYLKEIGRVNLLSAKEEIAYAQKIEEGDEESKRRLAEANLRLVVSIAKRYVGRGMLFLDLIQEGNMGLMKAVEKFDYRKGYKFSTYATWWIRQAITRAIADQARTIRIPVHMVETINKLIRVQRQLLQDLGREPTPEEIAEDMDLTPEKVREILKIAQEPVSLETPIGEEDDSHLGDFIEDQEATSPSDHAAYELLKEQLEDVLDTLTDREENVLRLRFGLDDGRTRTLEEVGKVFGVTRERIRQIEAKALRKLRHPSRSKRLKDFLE

For data set [2], the target named is T1, native sigmaA-RNA polymerase holoenzyme. As to the kind of experiment: EMSA; up to 3-fold with other RNAP preparations; 40 mM Tris-HCl pH 8.0, 5 mM MgCl2, 160 mM KCl, 1 mM DTT, heparin 80 ng/uL, ~10 nM RNA, plus RNAP storage buffer; 30 min at 37 C; native 7.5% PAGE (10% for Fig 12). Conditions: protein: native; chain copies: 2;1;1;1; label: 5'-32P.
The target is the same in data set [3]. As to the kind of experiment: EMSA; pLNA pre-annealed; 40 mM Tris-HCl pH 8.0, 5 mM MgCl2, 160 mM KCl, 1 mM DTT, heparin 80 ng/uL, ~10 nM RNA, plus RNAP storage buffer; 30 min at 37 C; native 7.5% PAGE (10% for Fig 12). Particulars: protein: native; chain copies: 2;1;1;1; label: 5'-32P on 6S-1 RNA; pLNA annealed to 6S-1 RNA from nt 40 upstream.
For data set [4] the target is unchanged. Kind of data set: EMSA; Kd printed only in graph; 40 mM Tris-HCl pH 8.0, 5 mM MgCl2, 160 mM KCl, 1 mM DTT, heparin 80 ng/uL, ~10 nM RNA, plus RNAP storage buffer; 30 min at 37 C; native 7.5% PAGE (10% for Fig 12). Particulars: protein: native; chain copies: 2;1;1;1; label: 5'-32P.
Data set [5] addresses T2, sigmaA-RNA polymerase holoenzyme (native or His-tagged SG7 preparation, not specified for this assay) (Bacillus subtilis, UniProt P20429;P37870;P37871;P06224 1-314;1-1193;1-1199;1-371). As to the kind of experiment: EMSA; K1/2 printed only in graph; 40 mM Tris-HCl pH 8.0, 5 mM MgCl2, 160 mM KCl, 1 mM DTT, heparin 80 ng/uL, ~10 nM RNA, plus RNAP storage buffer; 30 min at 37 C; native 7.5% PAGE (10% for Fig 12). Particulars: protein: native; chain copies: 2;1;1;1; label: 5'-32P.

Data set [6] concerns the target T2, sigmaA-RNA polymerase holoenzyme …. Kind of data set: EMSA; almost three-fold; K1/2 only in graph; 40 mM Tris-HCl pH 8.0, 5 mM MgCl2, 160 mM KCl, 1 mM DTT, heparin 80 ng/uL, ~10 nM RNA, plus RNAP storage buffer; 30 min at 37 C; native 7.5% PAGE (10% for Fig 12). Particulars: protein: native; chain copies: 2;1;1;1; label: 5'-32P.
Data set [7] deals with T1, native sigmaA-RNA polymerase holoenzyme. Kind of data set: EMSA; pRNA pre-annealed; 40 mM Tris-HCl pH 8.0, 5 mM MgCl2, 160 mM KCl, 1 mM DTT, heparin 80 ng/uL, ~10 nM RNA, plus RNAP storage buffer; 30 min at 37 C; native 7.5% PAGE (10% for Fig 12). Particulars: protein: native; chain copies: 2;1;1;1; label: 5'-32P on 6S-1 RNA; pRNA annealed to 6S-1 RNA from nt 40 upstream.

Substitutions are numbered along the chain they refer to. Names may count otherwise.

T2 sequence (P20429 whole entry, chain 1 of 4): as the sequence (P20429 whole entry, chain 1 of 4) above
T2 sequence (P37870 whole entry, chain 2 of 4): as the sequence (P37870 whole entry, chain 2 of 4) above
T2 sequence (P37871 whole entry, chain 3 of 4): as the sequence (P37871 whole entry, chain 3 of 4) above
T2 sequence (P06224 whole entry, chain 4 of 4): as the sequence (P06224 whole entry, chain 4 of 4) above

B1: 6S78 RNA (structured_RNA)
RNA: CCUAGUUUUGACCGAACAUUUUUUUGAUUUGGGAGCCCGCAGGGCACCCACCUGCUGAGAGCGGGUUCAAAACAAAGG
As to B1, the “apparent K (half saturation)” value in data set [1] is about 1000 nM.

B2: 6S82cp RNA (structured_RNA)
RNA: GGGCACCCACCUGCUGAGAGCGGGUUCAAAACAAAGGAAAGCCACCUAGUUUUGACCGAACAUUUUUUUGAUUUGGGAGCCC
On to B2, for which, in data set [1] (artificial loop capping P2), the “apparent K (half saturation)” value is about 1000 nM.

B3: wt 6S-1 RNA (190 nt) (structured_RNA)
RNA: AGUCCUGAUGUGUUAGUUGUACACCUAGUUUUGACCGAACAUUUUUUUGAUUUGGGAGCCCGCAUUUUUAAAUGGCGUACAUGCCUCUUUUCAUUCGGUAAAGAGGACUUACAAGAUUUAAAAGAGGGCACCCACCUGCUGAGAGCGGGUUCAAAACAAAGGAAAGCUGCAACGGCACUAUUGGGACUUU
On to B3, for which the “apparent K (half saturation)” value in data set [1] (rod-shaped, central bubble flanked by two helical arms) was about 100 nM.

B4: 6S-1 RNA C44/45 (structured_RNA)
RNA: B3 RNA with U44C, U45C
With B4, the binding signal in data set [2] is about 2 fold lower affinity vs wt.

B5: 6S-1 RNA:pLNA 8-mer (mixed)
RNA: B3 RNA
DNA: GTTCGGTC
modifications: strand 2 all-LNA
As for B5, in data set [3], the binding result is “no binding”.

B6: 6S-1 RNA A50U (structured_RNA)
RNA: B3 RNA with A50U
Regarding B6, in data set [4], the binding signal was about 2 fold Kd increase vs wt.

B7: 6S-1 RNA:pLNA 7-mer (mixed)
RNA: B3 RNA
DNA: GTTCGGT
modifications: strand 2 LNA, iso-sequential to pRNA (first 7 nt inferred)
With B7, the binding result in data set [3] is “no binding”.

B8: C44/45 8M 6S-1 RNA (structured_RNA)
RNA: B3 RNA with U30C, U31A, U32A, A34G, U44C, U45C, U151C, A153U, A154U, A155G
Regarding B8, in data set [5], the binding signal is ~1.5 fold lower affinity vs wt 8M.

B9: C44/45 6M 6S-1 RNA (structured_RNA)
RNA: B3 RNA with U30C, U31A, U32A, A34G, U44C, U45C, A154U, A155G
For B9, in data set [6], the binding signal was ~3 fold lower affinity vs wt 6M.

B10: 6S-1 RNA:pRNA 14-mer (structured_RNA)
RNA 1: B3 RNA
RNA 2: GUUCGGUCAAAACU
For the molecule B10, in data set [7], the binding result is on record as “no binding”.

B11: 6S-1 RNA:pLNA 6-mer (mixed)
RNA: B3 RNA
DNA: GTTCGG
modifications: strand 2 LNA, iso-sequential to pRNA (first 6 nt inferred)
In the case of B11, the binding result in data set [3] is reported as “no binding”.
